Earlier results, collected in article PMC3859915.

Biological target: IL-15 (Mus musculus) (UniProt P48346)
UniProt P48346, sequence (P48346 49-162): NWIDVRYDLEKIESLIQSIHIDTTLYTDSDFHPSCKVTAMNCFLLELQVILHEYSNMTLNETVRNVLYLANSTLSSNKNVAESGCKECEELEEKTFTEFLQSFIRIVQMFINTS

Kd: 0.014 nM
Substance: IL-15Rα (from UniProt Q60819)
